Results: paper PMC5566547, “Nei-like 1 (NEIL1) excises 5-carboxylcytosine directly and stimulates TDG-mediated 5-formyl and 5-carboxylcytosine excision”

B1: 41-mer 5caC:G (dsDNA)
DNA 1: GCTACCTACCTAGCAGGGGCCAGCTGTCCCACTGCTCGGAA
DNA 2: TTCCGAGCAGTGGGACAGCTGGCCCCTGCTAGGTAGGTAGC
modifications: 5-carboxylcytosine at position 20 of top strand
B2: 41-mer 5OHC:G (dsDNA)
DNA 1: B1 DNA 1
DNA 2: B1 DNA 2
modifications: 5-hydroxycytosine at position 20 of top strand

Molecular target: NEIL1 P2T (human, UniProt Q96FI4 1-390, P2T)
Assay: EMSA; EMSA: 25 mM Tris-HCl pH 7.5, 100 mM NaCl, 1 mM DTT, 10 nM DNA, 1-200 nM NEIL1 P2T, on ice 30 min; 6% native PAGE, 0.5x TBE, 4 C
Conditions: protein: recombinant; tags: C-terminal His6; label: 5'-32P top strand; blunt

Chain of NEIL1 P2T (Q96FI4 whole entry P2T): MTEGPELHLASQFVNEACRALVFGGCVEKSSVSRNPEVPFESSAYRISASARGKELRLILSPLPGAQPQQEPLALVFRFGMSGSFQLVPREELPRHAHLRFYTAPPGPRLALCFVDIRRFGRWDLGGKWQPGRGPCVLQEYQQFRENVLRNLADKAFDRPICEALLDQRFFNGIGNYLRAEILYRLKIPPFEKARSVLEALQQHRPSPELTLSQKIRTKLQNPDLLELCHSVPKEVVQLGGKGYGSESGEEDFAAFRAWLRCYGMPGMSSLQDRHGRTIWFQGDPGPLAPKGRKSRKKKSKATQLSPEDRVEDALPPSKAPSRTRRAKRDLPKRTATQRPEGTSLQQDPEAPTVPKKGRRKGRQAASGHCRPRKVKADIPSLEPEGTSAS

Row | Binder | binding result
1 | B1 | binds
2 | B2 | binds
